Assay [1] has as its target T1, 人N端脑钠肽前体 (N-terminal pro-brain natriuretic peptide, NT-proBNP) (human, UniProt P16860 27-102).
T1 construct: domain: N端脑钠肽前体 (NT-proBNP), 76个氨基酸残基; Bought recombinant protein; also called hNT-proBNP; 人N末端B型脑钠肽前体
T1 sequence (looked up): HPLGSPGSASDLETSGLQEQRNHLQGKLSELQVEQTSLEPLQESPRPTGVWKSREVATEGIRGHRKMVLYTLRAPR
Description: indirect ELISA, NT-proBNP coated at 400 ng/ml, serially diluted purified ascites antibody. (In general: An ELISA detects its analyte on a solid surface through an enzyme-linked reagent.)

Assay [2] addresses T1, 人N端脑钠肽前体 (N-terminal pro-brain …). Description: non-competitive enzyme immunoassay (ELISA), NT-proBNP coated at 400, 100, 25 ng/mL, Ka=(n-1)/2(n[Ab']t-[Ab]t).

B1: 单克隆抗体Ab3 (抗人N端脑钠肽前体单克隆抗体) (antibody, V domains shown)
VH: QVQLQQPGAELVKPGASVKMSCQASGFTFTNYIIHWVKQTPGQGLEWIGAIYPGNGDTSYNQKFRGKATLTADKSSNTAYMQLSSLTSEDSAVYYCAGEDNYGNSYWYFDVWGAGTTVTVSS
VL: DIVMTQTPLSLPVSLGDQASISCRSSQSIVHSTGNTYLEWYLQKPGQSPKLLIYKVSNRLSGVPDRFSGSGSGTDFTLKISRVEAEDLGVYYCFQGSQVSLTFGAGTKLELKR
B1: the “效价 (antibody dilution at OD450 about 1.0)” value in assay [1] was > 1e+06 dilution fold (1:x).

B2: 单克隆抗体Ab1 (抗人N端脑钠肽前体单克隆抗体, 杂交瘤细胞株3A2分泌) (antibody)
chain 1: VKLQESGPELVKPGASQKISCKTSGYTFTVYTLHWVKQSHGKSLEWIGAINPKTGSIRNNQKFRDKAILTIDRSSNTAYMDLRSLTSDDSAVYFCARNGGHDVYFFDYWGQGTTVTVSS
chain 2: DIVLTQSPASLAVSLGQRATISYRASKSVSTSGYSYMHWNQQKPGQPPRLLIYLVSNLESGVPARFSGSGSGTDFTLNIHPVEEEDAATYYCQHIR
For the molecule B2, in assay [1], the “效价 (antibody dilution at OD450 about 1.0)” value was > 1e+06 dilution fold (1:x). In assay [2], this molecule displayed a Ka of 1e+10 M⁻¹.
